The source of these data is publication PMC3936742 (Nucleic Acids Research, 2013).

The experiment has as its target T1, Flag-MnmC(o), C-terminal oxidoreductase domain of MnmC (amino acids 250-668) (E. coli, UniProt P77182 250-668).
T1 sequence (looked up): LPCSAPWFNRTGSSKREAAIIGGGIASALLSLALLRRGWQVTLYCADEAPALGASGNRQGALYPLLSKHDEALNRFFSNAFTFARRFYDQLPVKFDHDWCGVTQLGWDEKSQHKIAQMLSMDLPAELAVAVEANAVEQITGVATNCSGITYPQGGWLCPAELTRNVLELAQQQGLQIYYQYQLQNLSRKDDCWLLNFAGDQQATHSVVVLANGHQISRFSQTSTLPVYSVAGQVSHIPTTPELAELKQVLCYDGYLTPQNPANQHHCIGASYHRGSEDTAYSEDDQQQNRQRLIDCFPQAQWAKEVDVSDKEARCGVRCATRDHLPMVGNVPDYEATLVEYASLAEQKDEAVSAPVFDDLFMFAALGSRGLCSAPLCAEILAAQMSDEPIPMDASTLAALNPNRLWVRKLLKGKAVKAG
The experiment is described as follows: SPR; His-MnmC(m) captured (~600 RU) on anti-His monoclonal antibody coupled to a CM-5 chip; Flag-MnmC(o) at various concentrations in TBS buffer, 30 µl/min, 25°C; apparent equilibrium constant. The conditions noted are these: both partners purified. Background: In SPR one partner is held on a chip, and binding of the other changes the refractive index at the surface.

B1: His-MnmC(m), MnmC(m) domain fused at its N-terminal end to a 6x-His-epitope (domain or fragment, E. coli, UniProt P77182 1-250, looked up)
chain: MKHYSIQPANLEFNAEGTPVSRDFDDVYFSNDNGLEETRYVFLGGNQLEVRFPEHPHPLFVVAESGFGTGLNFLTLWQAFDQFREAHPQAQLQRLHFISFEKFPLTRADLALAHQHWPELAPWAEQLQAQWPMPLPGCHRLLLDEGRVTLDLWFGDINELTSQLDDSLNQKVDAWFLDGFAPAKNPDMWTQNLFNAMARLARPGGTLATFTSAGFVRRGLQDAGFTMQKRKGFGRKREMLCGVMEQTLPL
Take B1: the Kd was determined as 87 ± 15 nM.
